# According to the supplement of paper PMC9233669:
# Fewer inactive variants are shown than the library holds.
# Assays:
# biotinyl-Trp-oxazolone = test: self-aminoacylation, catalytic enhancement (BWO) (fold over background); higher = more active; k-Seq, kA / k0A0; sequences stand for … in GGGAAUGGAUCCACAUCUACGAAUUC…UUCACUGCAGACUUGACGAAGCUG
# In short: (§1)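 Catalytic enhancement equals the median kA over the uncatalyzed rate, the latter read from the low-activity peak of a bimodal Gaussian fit. Values of kA came from fitting each sequence's fraction reacted to a pseudo-first-order model, with 1000 bootstraps. Reacted RNA was captured with streptavidin and quantified by triplicate qPCR and Illumina sequencing after 90 minutes at room temperature with 2–1250 μM biotinyl-aminoacyl-oxazolone and 0.43 μM mutagenized RNA pools bearing a 21-nt variable region.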
# biotinyl-Ile-oxazolone = test: self-aminoacylation, catalytic enhancement (BIO) (fold over background); higher = more active; k-Seq, kA / k0A0; sequences stand for … in GGGAAUGGAUCCACAUCUACGAAUUC…UUCACUGCAGACUUGACGAAGCUG
# In short: as §1
# biotinyl-Val-oxazolone = test: self-aminoacylation, catalytic enhancement (BVO) (fold over background); higher = more active; k-Seq, kA / k0A0; sequences stand for … in GGGAAUGGAUCCACAUCUACGAAUUC…UUCACUGCAGACUUGACGAAGCUG
# In short: as §1
# biotinyl-Met-oxazolone = test: self-aminoacylation, catalytic enhancement (BMO) (fold over background); higher = more active; k-Seq, kA / k0A0; sequences stand for … in GGGAAUGGAUCCACAUCUACGAAUUC…UUCACUGCAGACUUGACGAAGCUG
# In short: as §1
# biotinyl-Phe-oxazolone = test: self-aminoacylation, catalytic enhancement (BFO) (fold over background); higher = more active; k-Seq, kA / k0A0; sequences stand for … in GGGAAUGGAUCCACAUCUACGAAUUC…UUCACUGCAGACUUGACGAAGCUG
# In short: as §1
# biotinyl-Leu-oxazolone = test: self-aminoacylation, catalytic enhancement (BLO) (fold over background); higher = more active; k-Seq, kA / k0A0; sequences stand for … in GGGAAUGGAUCCACAUCUACGAAUUC…UUCACUGCAGACUUGACGAAGCUG
# In short: as §1
Sequence,self-aminoacylation (biotinyl-Trp-oxazolone),self-aminoacylation (biotinyl-Ile-oxazolone),self-aminoacylation (biotinyl-Val-oxazolone),self-aminoacylation (biotinyl-Met-oxazolone),self-aminoacylation (biotinyl-Phe-oxazolone),self-aminoacylation (biotinyl-Leu-oxazolone)
CUACUUCAAACAAUCGUUCAG [Fam1A.1 aminoacylation ribozyme variant],0.523,0.658,0.769,0.566,0.81,0.497
CUACUUCAAACAAUCUGCCUG [Fam1A.1 aminoacylation ribozyme variant],0.605,0.913,0.751,1.04,1.33,0.957
CUACUUCAAACAAUCUUUCUG [Fam1A.1 aminoacylation ribozyme variant],2.33,0.747,0.898,0.771,5.42,0.658
CUACUUCAAACAAUGGGGCUG [Fam1A.1 aminoacylation ribozyme variant],0.497,1.12,1.1,0.841,0.625,0.707
CUACUUCAAACAAUUAGUCUG [Fam1A.1 aminoacylation ribozyme variant],0.684,0.891,0.901,0.662,1.04,0.712
CUACUUCAAACAAUUGGCCUG [Fam1A.1 aminoacylation ribozyme variant],2.03,1.57,1.33,1.11,2.28,1.34
CUACUUCAAACACUCGGACUG [Fam1A.1 aminoacylation ribozyme variant],1.32,1.11,1.2,1.01,0.435,0.89
CUACUUCAAACACUCGGUCAG [Fam1A.1 aminoacylation ribozyme variant],0.721,0.907,0.958,0.878,0.496,0.833
CUACUUCAAACACUCGGUGUG [Fam1A.1 aminoacylation ribozyme variant],1.63,1.81,1.59,1.72,4.18,1.5
CUACUUCAAACACUCGUUCUG [Fam1A.1 aminoacylation ribozyme variant],0.444,0.595,0.635,0.499,0.429,0.492
CUACUUCAAACACUCUGUCUG [Fam1A.1 aminoacylation ribozyme variant],0.678,0.797,0.724,0.608,0.709,0.547
CUACUUCAAACAGUCGGUCUU [Fam1A.1 aminoacylation ribozyme variant],0.563,1.1,0.819,0.925,0.838,1.13
CUACUUCAAACAUUCCGUCUG [Fam1A.1 aminoacylation ribozyme variant],1.22,1.15,1.2,0.79,0.631,1.19
CUACUUCAAACAUUCGAUCUG [Fam1A.1 aminoacylation ribozyme variant],0.44,0.645,0.731,0.593,0.62,0.561
CUACUUCAAACAUUCGGUCUG [Fam1A.1 aminoacylation ribozyme variant],0.904,0.994,1.01,0.904,0.828,0.892
CUACUUCAAACAUUCGGUCUU [Fam1A.1 aminoacylation ribozyme variant],0.767,1.15,1.11,1.38,0.774,1.03
CUACUUCAAACAUUCGUUCUG [Fam1A.1 aminoacylation ribozyme variant],0.504,0.713,0.706,0.669,0.513,0.659
CUACUUCAAACCAUAGGUCUG [Fam1A.1 aminoacylation ribozyme variant],0.487,0.807,0.809,0.47,0.985,0.615
CUACUUCAAACCAUCGCUCUG [Fam1A.1 aminoacylation ribozyme variant],0.532,0.878,0.982,0.762,0.394,0.915
CUACUUCAAACCAUCGGGCUG [Fam1A.1 aminoacylation ribozyme variant],1.77,1.97,1.92,2.16,0.939,1.73
CUACUUCAAACCAUCGGUUUG [Fam1A.1 aminoacylation ribozyme variant],0.624,0.815,1.03,0.74,0.597,0.895
CUACUUCAAACGAUCGAUCUG [Fam1A.1 aminoacylation ribozyme variant],0.354,0.55,0.584,0.47,0.425,0.485
CUACUUCAAACGAUCGGUCUG [Fam1A.1 aminoacylation ribozyme variant],1.31,0.65,0.763,0.677,1.42,0.68
CUACUUCAAACUAUCGGCCUG [Fam1A.1 aminoacylation ribozyme variant],1.66,1.2,1.06,1.13,0.97,0.909
CUACUUCAAACUAUCGGUCUG [Fam1A.1 aminoacylation ribozyme variant],0.905,0.906,0.905,0.818,1.15,0.779
CUACUUCAAAGAAUCAGUCUG [Fam1A.1 aminoacylation ribozyme variant],1.7,0.759,0.803,0.677,3.34,0.68

Sequence,self-aminoacylation (biotinyl-Trp-oxazolone),self-aminoacylation (biotinyl-Ile-oxazolone),self-aminoacylation (biotinyl-Val-oxazolone),self-aminoacylation (biotinyl-Met-oxazolone),self-aminoacylation (biotinyl-Phe-oxazolone),self-aminoacylation (biotinyl-Leu-oxazolone)
CUACUUCAAAGAAUCGGUCUA [Fam1A.1 aminoacylation ribozyme variant],0.542,0.748,0.665,0.608,1.2,0.737
CUACUUCAAAGAAUCGGUUUG [Fam1A.1 aminoacylation ribozyme variant],4.68,0.892,0.785,0.933,5.29,0.845
CUACUUCAAAGAAUGGGUCUG [Fam1A.1 aminoacylation ribozyme variant],0.459,0.79,0.665,0.708,0.335,0.74
CUACUUCAAAUAAACGGUCUG [Fam1A.1 aminoacylation ribozyme variant],0.692,0.719,0.777,0.537,0.881,0.71
CUACUUCAAAUAAGCGGUCUG [Fam1A.1 aminoacylation ribozyme variant],0.575,0.958,0.799,0.797,0.945,0.824
CUACUUCAAAUAAUCGCUCUG [Fam1A.1 aminoacylation ribozyme variant],1.23,0.6,0.637,0.562,2.37,0.583
CUACUUCAAAUAAUCGGGCUG [Fam1A.1 aminoacylation ribozyme variant],3.35,0.911,0.85,0.607,4.76,0.965
CUACUUCAAAUAAUCGGUCAG [Fam1A.1 aminoacylation ribozyme variant],3.24,0.755,0.83,0.675,6.75,0.708
CUACUUCAAAUAAUCGGUGUG [Fam1A.1 aminoacylation ribozyme variant],2.4,0.826,0.826,0.983,3.23,1
CUACUUCAAAUAAUGGGUCUG [Fam1A.1 aminoacylation ribozyme variant],0.583,0.875,0.814,0.956,0.624,1.01
CUACUUCAAAUAAUUGGUCUG [Fam1A.1 aminoacylation ribozyme variant],0.637,0.844,0.802,0.953,1.19,0.869
CUACUUCAAAUACUCGGUCUG [Fam1A.1 aminoacylation ribozyme variant],0.71,0.832,0.84,0.972,0.622,0.807
CUACUUCAACCAAACGGUCUG [Fam1A.1 aminoacylation ribozyme variant],0.55,0.745,0.86,0.704,0.71,0.871
CUACUUCAACCAUUCGGUCUG [Fam1A.1 aminoacylation ribozyme variant],1.52,1.21,1.26,1.17,0.891,1.19
CUACUUCAACCCAUCGGUCUG [Fam1A.1 aminoacylation ribozyme variant],0.838,0.983,0.983,0.722,0.647,0.943
CUACUUCAAGCAACCGGUCUG [Fam1A.1 aminoacylation ribozyme variant],0.799,0.883,0.837,0.943,1.06,0.947
CUACUUCAAGCAAUCAGUCUG [Fam1A.1 aminoacylation ribozyme variant],2.25,0.772,0.786,0.615,5.21,0.698
CUACUUCAAGCAAUCGCUCUG [Fam1A.1 aminoacylation ribozyme variant],1.17,0.99,0.943,1.07,1.13,1.28
CUACUUCAAGCAAUCGGUCAG [Fam1A.1 aminoacylation ribozyme variant],1.3,0.86,0.894,1.09,2.28,0.797
CUACUUCAAGCAAUCGGUCGG [Fam1A.1 aminoacylation ribozyme variant],4.8,1.53,1.25,1.08,5.87,1.69
CUACUUCAAGCAAUCGGUUUG [Fam1A.1 aminoacylation ribozyme variant],8.79,1.11,1.03,0.981,11.5,1.35
CUACUUCAAUUAAUCGGUCUG [Fam1A.1 aminoacylation ribozyme variant],13.9,1.08,0.985,1.03,18.7,1.33
CUACUUCACACAAUCGGUCUG [Fam1A.1 aminoacylation ribozyme variant],0.689,0.775,0.811,0.685,0.869,0.694
CUACUUCACACAAUGGGUCUG [Fam1A.1 aminoacylation ribozyme variant],0.589,0.865,0.754,0.826,0.647,0.775
CUACUUCACACAAUUGGUCUG [Fam1A.1 aminoacylation ribozyme variant],0.828,0.948,0.739,1,0.431,0.729
